Read-outs that look alike come from different tables or passages of the source.

Results on ten molecules are retold here after patent US12552834 (MIT, dated 2026).

Test [1] addresses T1, ENAH EVH1 domain (monomeric, wild type) (human, UniProt Q03173 1-111 (mouse entry)).
T1 construct: ENAH residue numbers in the text count from the Met at position 25 of this entry; also called ENAH EVH1 WT; Mena EVH1 WT
As to the kind of experiment: BLI, steady state; SUMO-peptide immobilised, EVH1 monomer in solution. (In general: In BLI a coated tip is dipped into the sample, and binding shifts an interference pattern.)
Protocol: (§1) All BLI experiments were performed with 2 replicates on an Octet Red96 instrument (ForteBio). […] The loaded tips were immersed in a solution of ENAH EVH1 domain at a relevant dilution series in BLI buffer at an orbital shake speed of 1000 rpm and run until the binding signal plateaued. ENAH-bound tips were subsequently placed into BLI buffer only for dissociation and run until the binding signal plateaued. K_D values were obtained through steady state analysis. […] The association phases were then fit to a one-phase binding model in Prism and the equilibrium steady-state binding signal values from that fit were plotted against ENAH concentration and fit to a single-site specific binding model in Prism to obtain dissociation constants. Errors reported are the standard deviation of two replicates.

Test [2] concerns the target T2, ENAH EVH1 domain with Arg47 mutated to Ala (human, UniProt Q03173 1-111 (mouse entry)).
T2 construct: also called ENAH R47A; ENAH EVH1 R47A
Described as above.
Protocol: as §1

Test [3] deals with T1, ENAH EVH1 domain (monomeric, wild type). The test is described as above. This is another data set of the same source.
Protocol: as §1
Test [4] has the same target. As to the kind of experiment: ITC. (In ITC the heat of successive injections is recorded.)
Protocol: (§2) ITC experiments were performed with two replicates using a VP-ITC microcalorimeter (MicroCal LLC). To prepare samples for ITC, 2.5 mL of 100 µM ENAH EVH1 domain and 1 mL of 800 µM-1.2 mM of SUMO-peptide fusions were dialyzed against 2 µL of ITC Buffer (20 mM Hepes pH 7.6, 150 mM NaCl, 1 mM TCEP) at 4° C. overnight. The concentrations of proteins were remeasured after dialysis on the day of experiment. SUMO-peptide was titrated into ENAH EVH1 domain at 25° C. Data analysis and curve fitting were performed with the Origin 7.0 software (OriginLab).
The target of test [5] is T2, ENAH EVH1 domain with Arg47 mutated to …. As to the kind of experiment: BLI, steady state; SUMO-peptide immobilised, EVH1 monomer in solution. This is another data set of the same source.
Protocol: as §1
In test [6] the target is T1, ENAH EVH1 domain (monomeric, wild type). Described as above. This is another data set of the same source.
Protocol: as §1
Test [7] shares this target. As to the kind of experiment: ITC, SUMO-peptide titrated into ENAH EVH1 domain at 25 °C.
Protocol: as §2
Test [8] shares this target. As to the kind of experiment: BLI, steady state; SUMO-peptide immobilised, EVH1 monomer in solution; Table 2 (MassTitr hit validation), not the Table 3 truncation series.
Protocol: as §1
The target is the same in test [9]. As to the kind of experiment: BLI, steady state; SUMO-peptide immobilised, EVH1 monomer in solution. The source holds these as a separate data set.
Protocol: as §1
Test [10] has as its target T3, EVL EVH1 swapped (residue swapped) (Homo sapiens (Human), UniProt Q9UI08 1-109).
T3 construct: also called EVL swapped; residue-swapped EVL EVH1 domain
As to the kind of experiment: BLI, EVL swapped EVH1 domain in solution.

The target of test [11] is T4, EVL EVH1 domain (wild type) (Mus musculus (Mouse), UniProt P70429 1-116).
T4 construct: EVL numbering counts from the Met at position 25 of the entry; also called WT EVL EVH1 domain
As to the kind of experiment: BLI steady state, immobilised SUMO-PCARE B, EVH1 domain in solution.

Test [12] concerns the target T5, VASP EVH1 domain (Homo sapiens (Human), UniProt P50552 1-114).
T5 construct: VASP numbering in the text counts from the Met at position 25 of the entry
The description is as above.

Test [13] addresses T4, EVL EVH1 domain (wild type). The test is described as above. The source holds these as a separate data set.
Test [14] concerns the target T1, ENAH EVH1 domain (monomeric, wild type). As to the kind of experiment: BLI dissociation phase, immobilised SUMO-peptide, ENAH EVH1 domain in solution.
Test [15] has the same target. As to the kind of experiment: BLI, monomeric EVH1.
For test [16] the target is unchanged. As to the kind of experiment: BLI steady state, immobilised SUMO-peptide, ENAH EVH1 domain in solution.
Protocol: (§3) (C) Peptide binding and dissociation curves measured by BLI. Blue, orange, green, red, purple, and brown curves denote EVH1 concentrations in descending order.
as §1
Test [17] shares this target. As to the kind of experiment: BLI dissociation curves.
Protocol: as §3, §1
Test [18] addresses T4, EVL EVH1 domain (wild type). As to the kind of experiment: BLI steady state, immobilised SUMO-PCARE-Dual, EVH1 domain in solution.
Protocol: as §3, §1
Test [19] deals with T1, ENAH EVH1 domain (monomeric, wild type). The description is as above.
Protocol: as §3, §1
Test [20] concerns the target T5, VASP EVH1 domain. The description is as above.
Protocol: as §3, §1
The target of test [21] is T1, ENAH EVH1 domain (monomeric, wild type). As to the kind of experiment: BLI.
Protocol: as §1

T2 sequence (Q03173 other isoform, or with tags, fused parts or gaps limits assumed, stated change not applied): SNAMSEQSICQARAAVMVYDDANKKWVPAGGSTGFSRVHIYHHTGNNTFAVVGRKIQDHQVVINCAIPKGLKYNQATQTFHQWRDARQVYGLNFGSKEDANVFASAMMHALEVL
T1 sequence (Q03173 other isoform, or with tags, fused parts or gaps limits assumed): as the sequence (Q03173 other isoform, or with tags, fused parts or gaps limits assumed, stated change not applied) above, with A50R counted along it
T4 sequence (P70429 other isoform, or with tags, fused parts or gaps limits assumed): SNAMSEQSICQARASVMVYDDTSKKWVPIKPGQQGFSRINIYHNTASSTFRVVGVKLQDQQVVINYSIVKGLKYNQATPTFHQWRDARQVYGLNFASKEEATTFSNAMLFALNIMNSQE
T5 sequence (P50552 other isoform, or with tags, fused parts or gaps limits assumed): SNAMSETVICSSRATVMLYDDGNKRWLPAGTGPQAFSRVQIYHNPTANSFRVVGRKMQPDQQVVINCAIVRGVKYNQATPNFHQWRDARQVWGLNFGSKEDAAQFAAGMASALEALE
T3 sequence (Q9UI08 other isoform, or with tags, fused parts or gaps limits assumed): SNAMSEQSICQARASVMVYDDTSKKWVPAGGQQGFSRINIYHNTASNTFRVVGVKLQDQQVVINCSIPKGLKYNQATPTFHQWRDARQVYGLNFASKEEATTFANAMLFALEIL

B1: PCARE 36-residue peptide (PCARE813-848) (peptide)
peptide: MAGGLNDIFEAQKIEWHEDTGGSSHHHHHHGSGSGSDSEVNQEAKPEVKPEVKPETHINLKVSDGSSEIFFKIKKTTPLRRLMEAFAKRQGKEMDSLTFLYDGIEIQADQTPEDLDMEDNDIIEAHREQIGGSGSGAAKSEELSCEMEGNLEHLPPPPMEVLMDKSFASLES
modifications: biotinylated (BAP tag)
notes: Tested in BLI as a biotinylated BAP-6xHis-SUMO-peptide fusion; also called PCARE 36-mer
Consider B1, for which the results for the equilibrium dissociation constant (Kd) in test [1], in test [2] and in [3] were 0.192 µM, 0.331 µM and 0.192 µM, respectively.

B2: NHSL1 36mer peptide (peptide)
peptide: MAGGLNDIFEAQKIEWHEDTGGSSHHHHHHGSGSGSDSEVNQEAKPEVKPEVKPETHINLKVSDGSSEIFFKIKKTTPLRRLMEAFAKRQGKEMDSLTFLYDGIEIQADQTPEDLDMEDNDIIEAHREQIGGSGSGADRSPFLPPPPPVTDCSQGSPLPHSPVFPPPPPEAL
modifications: biotinylated (BAP tag)
notes: Tested as a BAP-6xHis-SUMO-peptide fusion in BLI and ITC
As for B2, in test [4], the “-TΔS” value was -0.28 kcal/mol. In test [4], this molecule yielded a ΔG of -6.83 kcal/mol. In [4], this molecule gave a ΔH of -6.55 kcal/mol. For the same molecule, the Kd in [5] came out at 55.4 µM; in test [6], 8.56 µM; in test [7], 9.8 µM; in [1], 8.56 µM; in [2] it was 55.4 µM; in [3] it was 8.56 µM.

B3: SUMO-ActA (ActA 36-mer peptide fused to SUMO) (peptide)
peptide: MAGGLNDIFEAQKIEWHEDTGGSSHHHHHHGSGSGSDSEVNQEAKPEVKPEVKPETHINLKVSDGSSEIFFKIKKTTPLRRLMEAFAKRQGKEMDSLTFLYDGIEIQADQTPEDLDMEDNDIIEAHREQIGGGFNAPATSEPSSFEFPPPPTEDELEIIRETASSLDS
modifications: biotinylated (BAP tag)
notes: Control peptide used in BLI and ITC; also called ActA peptide
As for B3, the “-TΔS” value in test [4] was -5.21 kcal/mol. Also, in test [4], the ΔG was -6.99 kcal/mol. Also, in test [4], the ΔH is -1.78 kcal/mol. For the same molecule, the dissociation constant Kd in [7] stood at 7.41 µM; in [1], 5.21 µM; in test [2], 8.02 µM; in test [3], 5.21 µM.

B4: Zyxin 36-mer peptide (peptide)
peptide: MAGGLNDIFEAQKIEWHEDTGGSSHHHHHHGSGSGSDSEVNQEAKPEVKPEVKPETHINLKVSDGSSEIFFKIKKTTPLRRLMEAFAKRQGKEMDSLTFLYDGIEIQADQTPEDLDMEDNDIIEAHREQIGGSGSGALGGAFPPPPPPIEESFPPAPLEEEIFPSPPPPPEE
modifications: biotinylated (BAP tag)
notes: Tested as a biotinylated BAP-6xHis-SUMO-peptide fusion
On to B4, for which the values for the Kd in [1], in [2] and in [3] were 4.79 µM, 54.5 µM and 4.79 µM, respectively.

B5: ABI1 36mer peptide (peptide)
peptide: MAGGLNDIFEAQKIEWHEDTGGSSHHHHHHGSGSGSDSEVNQEAKPEVKPEVKPETHINLKVSDGSSEIFFKIKKTTPLRRLMEAFAKRQGKEMDSLTFLYDGIEIQADQTPEDLDMEDNDIIEAHREQIGGSGSGFDDFPPPPPPPPVDYEDEEAAVVQYNDPYADGDPAW
modifications: biotinylated (BAP tag)
In the case of B5, the Kd was found to be 2.44 µM in [8] and 4.01 µM in [9].

B6: PCARE B (PCARE826-848) (peptide)
peptide: MAGGLNDIFEAQKIEWHEDTGGSSHHHHHHGSGSGSDSEVNQEAKPEVKPEVKPETHINLKVSDGSSEIFFKIKKTTPLRRLMEAFAKRQGKEMDSLTFLYDGIEIQADQTPEDLDMEDNDIIEAHREQIGGSGSGNLEHLPPPPMEVLMDKSFASLES
modifications: biotinylated (BAP tag)
Regarding B6, the Kd in test [10] worked out at 0.35 µM; in test [11] it was 22 µM; in the test with VASP EVH1 domain [12], 42 µM; in [13], 22 µM.

B7: LPP 36mer peptide (peptide)
peptide: MAGGLNDIFEAQKIEWHEDTGGSSHHHHHHGSGSGSDSEVNQEAKPEVKPEVKPETHINLKVSDGSSEIFFKIKKTTPLRRLMEAFAKRQGKEMDSLTFLYDGIEIQADQTPEDLDMEDNDIIEAHREQIGGSGSGKQPGGEGDFLPPPPPPLDDSSALPSISGNFPPPPPL
modifications: biotinylated (BAP tag)
notes: as for B2
For B7, the “-TΔS” value in [4] is -0.504 kcal/mol. The molecule further registered a ΔG in test [4] of -6.94 kcal/mol. This molecule came in with a ΔH in test [4] of -6.44 kcal/mol. The same molecule displayed a koff in [14] of 1.8 s⁻¹. In addition, the equilibrium dissociation constant (Kd) in [5] amounted to 61.9 µM; in test [6], 4.03 µM; in test [7], 8.13 µM; in test [1] it was 4.03 µM; in [2], 61.9 µM; in test [3], 4.03 µM.

B8: TENM1 36-mer peptide (peptide)
peptide: MAGGLNDIFEAQKIEWHEDTGGSSHHHHHHGSGSGSDSEVNQEAKPEVKPEVKPETHINLKVSDGSSEIFFKIKKTTPLRRLMEAFAKRQGKEMDSLTFLYDGIEIQADQTPEDLDMEDNDIIEAHREQIGGSGSGGSTQDVQSSPHNQFTFRPLPPPPPPPHACTCARKPP
modifications: biotinylated (BAP tag)
notes: Tested as a biotinylated BAP-6xHis-SUMO-peptide fusion; The text calls it TEN1; it contains both an FP4 and a CXC motif; also called TEN1
Turning to B8, the Kd was above 60 µM in test [15] and 62.9 µM in test [1].

B9: PCARE-Dual peptide (designed binder)
peptide: MAGGLNDIFEAQKIEWHEDTGGSSHHHHHHGSGSGSDSEVNQEAKPEVKPEVKPETHINLKVSDGSSEIFFKIKKTTPLRRLMEAFAKRQGKEMDSLTFLYDGIEIQADQTPEDLDMEDNDIIEAHREQIGGSGSGNLEHLPPPPMEVLMDKSFASLESGSGSPPPPPF
modifications: biotinylated (BAP tag)
notes: Engineered peptide, tested as a SUMO fusion in BLI
In test [14], B9 registered a koff of 0.045 s⁻¹. Further, the dissociation constant (Kd) in test [16] stood at 0.048 µM; in test [18], 21 µM; in test [19], 0.048 µM; with VASP EVH1 domain [20] it was 28 µM; in [21] it was 0.05 µM. Besides, the “fold slower dissociation than dual-motif peptide LPP” value in test [17] is around 100 fold. For the same molecule, the “fold tighter binding than PCARE B” value in test [21] is around 7 fold.

B10: ABI1-LPP fusion peptide (designed binder)
peptide: MAGGLNDIFEAQKIEWHEDTGGSSHHHHHHGSGSGSDSEVNQEAKPEVKPEVKPETHINLKVSDGSSEIFFKIKKTTPLRRLMEAFAKRQGKEMDSLTFLYDGIEIQADQTPEDLDMEDNDIIEAHREQIGGSGSGFDDFPPPPPPPPVDYEDLPSISGNFPPPPPL
modifications: biotinylated (BAP tag)
notes: as for B9
As for B10, the koff in test [14] is 0.33 s⁻¹. This molecule also had a Kd in test [21] of 0.76 µM.

Broadly, the Kd is the equilibrium constant for the complex coming apart. Low values mean a tighter complex, high ones a looser complex. In general, koff refers to a measure of how fast the partners let go of each other. High values mean fast dissociation, low ones slow dissociation.
